Results on ten molecules are retold here after US20130058934A1 (Novartis, published 2013).

Numbering of substitutions follows the chain as printed.

Assay [1] deals with T1, human LRP6 (human, UniProt O75581 20-1613).
T1 construct: whole, on cells; Endogenous LRP6 on human cells (PA1, HEK293T/17); also called endogenous LRP6 on PA1 cells and HEK293T/17 cells
Briefly: FACS on HEK293T/17 cells, endogenous human LRP6. As to the method: (§1) Cross-species reactivity to murine and cynomologus LRP6 was determined on cells by FACS analysis. FACS staining was performed essentially as described above. Human U266 cells (no expression of LRP6) were used as a negative control.
(§2) To show cross-reactivity, cells expressing endogenous LRP6 of human (HEK293T/17) and mouse origin (NIH 3T3), or transiently transfected HEK293/T17 cells expressing cynomolgus LRP6, were treated and subjected to flow cytometry as described above.

Another assay concerns the target T2, mouse LRP6 (mouse, UniProt O88572 20-1613).
T2 construct: whole, on cells; also called murine LRP6; endogenous LRP6 on NIH 3T3 cells
Put plainly: FACS on NIH 3T3 cells, endogenous mouse LRP6. As to the method:
as §1, §2

Assay [2] has as its target T3, LRP6-Fc (R&D Systems, catalog No: 1505-LR) (human, UniProt O75581 20-1370).
T3 construct: Purchased reagent; also called LRP6 protein; 360 KD homodimer antigen LRP6-Fc; not shown: Fc part of the purchased fusion
T3 sequence (looked up): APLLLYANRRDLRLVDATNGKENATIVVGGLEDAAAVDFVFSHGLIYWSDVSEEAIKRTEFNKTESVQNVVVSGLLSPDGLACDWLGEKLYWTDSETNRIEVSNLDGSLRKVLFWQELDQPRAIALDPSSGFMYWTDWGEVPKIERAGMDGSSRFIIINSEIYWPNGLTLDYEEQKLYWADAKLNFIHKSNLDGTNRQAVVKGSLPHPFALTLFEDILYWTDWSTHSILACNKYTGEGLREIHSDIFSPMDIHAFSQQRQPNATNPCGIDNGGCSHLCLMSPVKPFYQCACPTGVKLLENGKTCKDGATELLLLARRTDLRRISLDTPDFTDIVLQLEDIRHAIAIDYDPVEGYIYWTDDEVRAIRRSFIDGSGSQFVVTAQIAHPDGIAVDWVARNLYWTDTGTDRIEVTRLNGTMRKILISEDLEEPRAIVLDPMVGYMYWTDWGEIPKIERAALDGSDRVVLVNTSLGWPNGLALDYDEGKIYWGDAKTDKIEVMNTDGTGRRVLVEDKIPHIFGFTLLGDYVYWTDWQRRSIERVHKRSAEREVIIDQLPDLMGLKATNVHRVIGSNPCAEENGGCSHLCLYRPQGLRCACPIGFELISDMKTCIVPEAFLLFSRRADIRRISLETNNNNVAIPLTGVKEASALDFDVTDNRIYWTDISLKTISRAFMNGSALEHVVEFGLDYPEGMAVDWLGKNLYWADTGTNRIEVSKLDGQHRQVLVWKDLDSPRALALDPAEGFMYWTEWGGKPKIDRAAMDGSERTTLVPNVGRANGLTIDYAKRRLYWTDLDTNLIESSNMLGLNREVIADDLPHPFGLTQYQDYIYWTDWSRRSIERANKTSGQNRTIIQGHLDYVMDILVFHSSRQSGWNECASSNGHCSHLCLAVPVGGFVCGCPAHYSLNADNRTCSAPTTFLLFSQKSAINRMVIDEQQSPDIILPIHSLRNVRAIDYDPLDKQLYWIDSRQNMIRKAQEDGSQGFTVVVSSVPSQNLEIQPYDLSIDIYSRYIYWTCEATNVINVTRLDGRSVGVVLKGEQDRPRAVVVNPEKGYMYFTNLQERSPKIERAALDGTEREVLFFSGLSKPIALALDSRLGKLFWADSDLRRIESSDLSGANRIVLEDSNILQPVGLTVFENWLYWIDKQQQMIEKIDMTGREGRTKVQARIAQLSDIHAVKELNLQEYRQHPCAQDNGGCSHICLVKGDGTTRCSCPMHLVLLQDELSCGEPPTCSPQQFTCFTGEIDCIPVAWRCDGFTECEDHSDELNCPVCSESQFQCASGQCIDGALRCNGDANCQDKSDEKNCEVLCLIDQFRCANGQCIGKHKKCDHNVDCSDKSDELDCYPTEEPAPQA
Put plainly: ELISA on coated LRP6-Fc, detection with pentaHis-HRP. As to the method: Binding EC₅₀ of scFvs against LRP6 protein was measured by ELISA. Maxisorp plate was coated with LRP6-Fc (R&D Systems, catalog No: 1505-LR) at 3 μg/ml at 4° C. overnight. The plate was blocked with 50 μl of 2% BSA for one hour, and washed five times with the wash solution. The samples were diluted with 1% BSA accordingly. The plate was incubated at RT for 1 h, and washed for 3 times. Detection was done by adding 50 μl pentaHis-HRP (Qiagen Mat. No. 1014992) at 1:2000 dilution in 1% BSA, incubated at RT for 1 h, and washed 3 times. 50 μl of substrate reagent A plus B (R&D systems) was added, then incubated for 5-20 min depending on the color. The reaction was stopped by adding 25 μl of the stop solution, followed by plate reading at 450 nm.
Affinity analysis ELISA EC₅₀ was carried out for both scFv08168 and scFv06475 wild type and variants.
(In an ELISA, binding on a coated surface is turned into a signal by an enzyme label.)

Assay [3] has as its target T1, human LRP6. Briefly: cell-based or functional assay.
The target of a further assay is T4, LRP6 PD3/4 (human, UniProt O75581 631-1246).
T4 construct: range 631-1246; Recombinant soluble fragment; also called Propeller Domains 3-4 of LRP6; recombinant LRP6 PD3/4
T4 sequence (looked up): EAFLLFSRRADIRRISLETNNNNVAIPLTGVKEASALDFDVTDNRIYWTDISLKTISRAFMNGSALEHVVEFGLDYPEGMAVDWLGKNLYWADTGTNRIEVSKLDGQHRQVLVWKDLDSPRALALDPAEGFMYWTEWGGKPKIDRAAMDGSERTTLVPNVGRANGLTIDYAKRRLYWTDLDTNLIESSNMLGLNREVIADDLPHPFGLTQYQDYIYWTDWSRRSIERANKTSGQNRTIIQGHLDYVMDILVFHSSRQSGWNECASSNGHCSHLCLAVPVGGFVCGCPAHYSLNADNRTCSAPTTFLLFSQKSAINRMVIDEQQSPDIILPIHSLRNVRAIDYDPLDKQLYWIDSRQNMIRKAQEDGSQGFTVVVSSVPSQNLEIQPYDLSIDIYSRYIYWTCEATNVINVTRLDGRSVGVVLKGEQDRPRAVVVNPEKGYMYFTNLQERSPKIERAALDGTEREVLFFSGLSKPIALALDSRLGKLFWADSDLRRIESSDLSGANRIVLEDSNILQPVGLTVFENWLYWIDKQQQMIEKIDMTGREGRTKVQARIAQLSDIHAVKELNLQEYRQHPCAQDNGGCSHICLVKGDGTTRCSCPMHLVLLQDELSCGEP
Briefly: Biacore T-100 SPR, antibody captured by anti-human IgG Fc on a CM4 chip, PD3/4 injected; N = 4. As to the method: The carboxymethyl dextran surface was activated with a 7 min injection of a 1:1 ratio of 0.4 M EDC (1-Ethyl-3-[3-dimethylaminopropyl]carbodiimide hydrochloride) and 0.1 M NHS(N-hydroxysuccinimide). […] PD1/2 and PD3/4 were prepared as two fold concentration series starting at 50 nM, and injected at 30 μl/min for 1 min. […] The surfaces were then regenerated two times with 10 mM glycine (pH 2.2). […] PD3/4 at a saturating concentration of 100 nM was then flowed over the surface at a flow rate of 30 μl/min for 30 min. A saturating concentration of 100 nM PD1/2 was injected immediately after the PD3/4. The dissociation constant (KD), association (kₒₙ), and dissociation (koff) rates were calculated from the baseline subtracted corrected binding curves using the BIAevaluation software (GE Healthcare).
A general note: Surface plasmon resonance follows binding to a sensor surface in real time, without labels.

T2 sequence (O88572 20-1613): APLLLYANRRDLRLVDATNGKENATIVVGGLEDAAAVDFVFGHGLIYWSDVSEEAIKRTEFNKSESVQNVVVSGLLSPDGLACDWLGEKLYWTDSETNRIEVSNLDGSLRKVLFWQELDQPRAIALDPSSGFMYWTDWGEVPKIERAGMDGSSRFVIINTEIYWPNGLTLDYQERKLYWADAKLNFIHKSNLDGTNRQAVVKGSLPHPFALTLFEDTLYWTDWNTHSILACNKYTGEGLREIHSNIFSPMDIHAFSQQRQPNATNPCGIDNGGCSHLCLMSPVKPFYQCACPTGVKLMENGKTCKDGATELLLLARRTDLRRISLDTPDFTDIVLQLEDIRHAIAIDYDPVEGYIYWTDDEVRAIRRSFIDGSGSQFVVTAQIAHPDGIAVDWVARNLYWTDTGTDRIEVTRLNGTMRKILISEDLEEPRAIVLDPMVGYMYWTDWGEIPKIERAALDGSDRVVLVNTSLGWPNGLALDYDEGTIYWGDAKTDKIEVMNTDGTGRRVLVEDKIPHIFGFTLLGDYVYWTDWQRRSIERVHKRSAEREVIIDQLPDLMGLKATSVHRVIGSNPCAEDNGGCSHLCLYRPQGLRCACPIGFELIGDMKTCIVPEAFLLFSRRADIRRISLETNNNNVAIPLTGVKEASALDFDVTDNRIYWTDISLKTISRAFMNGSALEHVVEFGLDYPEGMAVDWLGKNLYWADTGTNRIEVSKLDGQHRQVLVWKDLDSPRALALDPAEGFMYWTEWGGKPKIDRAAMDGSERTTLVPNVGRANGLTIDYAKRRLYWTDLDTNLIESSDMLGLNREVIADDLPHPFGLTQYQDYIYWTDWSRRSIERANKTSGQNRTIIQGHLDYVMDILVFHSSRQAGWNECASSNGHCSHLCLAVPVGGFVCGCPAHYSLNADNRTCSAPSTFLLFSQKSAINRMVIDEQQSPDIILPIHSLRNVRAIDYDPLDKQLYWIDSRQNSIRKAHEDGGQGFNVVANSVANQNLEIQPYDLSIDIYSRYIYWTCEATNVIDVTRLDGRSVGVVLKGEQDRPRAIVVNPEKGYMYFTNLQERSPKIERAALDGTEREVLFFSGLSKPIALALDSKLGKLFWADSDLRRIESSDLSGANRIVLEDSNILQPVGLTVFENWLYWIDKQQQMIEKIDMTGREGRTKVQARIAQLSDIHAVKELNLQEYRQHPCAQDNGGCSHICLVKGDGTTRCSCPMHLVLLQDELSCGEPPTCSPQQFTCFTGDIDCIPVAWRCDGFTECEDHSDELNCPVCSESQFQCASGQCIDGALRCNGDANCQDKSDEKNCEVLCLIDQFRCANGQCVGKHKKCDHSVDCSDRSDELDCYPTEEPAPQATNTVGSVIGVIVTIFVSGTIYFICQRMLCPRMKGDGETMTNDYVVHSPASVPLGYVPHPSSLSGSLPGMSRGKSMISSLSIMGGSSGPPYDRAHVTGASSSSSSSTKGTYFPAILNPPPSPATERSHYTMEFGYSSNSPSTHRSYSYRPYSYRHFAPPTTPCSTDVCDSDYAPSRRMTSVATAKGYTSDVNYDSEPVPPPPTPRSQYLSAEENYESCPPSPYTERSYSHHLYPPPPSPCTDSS

B1: MOR08545 Fab (Fab, V domains shown)
VH: QVQLVESGGGLVQPGGSLRLSCAASGFTFSVNGMHWVRQAPGKGLEWVSVIDGMGHTYYADSVKGRFTISRDNSKNTLYLQMNSLRAEDTAVYYCARYDYIKYGAFDPWGQGTLVTVSS
VL: DIELTQPPSVSVAPGQTARISCSGDNIGSKYVHWYQQKPGQAPVLVIYGDSNRPSGIPERFSGSNSGNTATLTISGTQAEDEADYYCTRTSTPISGVFGGGTKLTVLG
notes: also called Propeller 1 anti-LRP6 Fab MOR08545
A word on the EC50: it is the concentration at which the effect is half-maximal. A lower EC50 goes with greater potency. Turning to B1, the concentration giving a half-maximal response (EC50) in the assay with human LRP6 [1] is 90 pM; with mouse LRP6 it was 60 pM.

B2: scFv08168 VH:I34M (scFv, V domains shown)
VH: QVQLVESGGGLVQPGGSLRLSCAASGFTFSDYVMNWVRQAPGKGLEWVSGISWSGVNTHYADSVKGRFTISRDNSKNTLYLQMNSLRAEDTAVYYCARLGATANNIRYKFMDVWGQGTLVTVSS
VL: DIELTQPPSVSVAPGQTARISCSGDSLRNKVYWYQQKPGQAPVLVIYKNNRPSGIPERFSGSNSGNTATLTISGTQAEDEADYYCQSYDGQKSLVFGGGTKLTVL
notes: Point mutant of scFv08168 (His tag)
As to B2, in assay [2], the EC50 was determined as 980 pM.

B3: MOR08168 Fab (Fab, V domains shown)
VH: B2 VH with M34I
VL: B2 VL
notes: HuCAL Fab expressed in E. coli from pMORPH X9/X11 FH vectors and purified by Ni-NTA; also called Propeller 1 anti-LRP6 Fab MOR08168
Turning to B3, the EC50 in the assay with human LRP6 [1] was 280 pM; with mouse LRP6, 120 pM.

B4: scFv MOR06475 (scFv, V domains shown)
VH: QVQLKESGPALVKPTQTLTLTCTFSGFSLSNRGGGVGWIRQPPGKALEWLAWIDWDDDKSYSTSLKTRLTISKDTSKNQVVLTMTNMDPVDTATYYCARMHLPLVFDSWGQGTLVTVSS
VL: DIVLTQSPATLSLSPGERATLSCRASQFIGSRYLAWYQQKPGQAPRLLIYGASNRATGVPARFSGSGSGTDFTLTISSLEPEDFATYYCQQYYDYPQTFGQGTKVEIK
For B4, the “IC50 by STF assay for Wnt3a inhibition” value in the assay with human LRP6 [3] amounted to 1480 pM.

B5: MOR08193 Fab (Fab, V domains shown)
VH: B4 VH
VL: DIVLTQSPATLSLSPGERATLSCRASQFIGSRYLAWYQQKPGQAPRLLIYGASNRATGVPARFSGSGSGTDFTLTISSLEPEDFAVYYCQQYWSIPITFGQGTKVEIKR
notes: also called Propeller 3 anti-LRP6 Fab MOR08193
For B5, the EC50 was 360 pM with human LRP6 [1] and 80 pM with mouse LRP6.

B6: MOR06475 IgG (antibody, V domains shown)
VH: B4 VH
VL: B5 VL with V86T, W93Y, S94D, I95Y, I97Q
notes: also called MOR6475; MOR6475 (propeller 3 antibody)
The term Kd denotes the free concentration of one partner at which half of the binding sites on the other are occupied at equilibrium, for simple one-to-one binding. Read a high Kd as a looser complex. By koff is commonly meant the first-order rate constant of dissociation. Read a low koff as a long-lived complex. Broadly, the kon is the rate constant with which the complex forms. As for B6, in the assay with LRP6 PD3/4, the Kd was determined as 1130 pM, the koff was found to be 0.000217 s⁻¹ and the kon stood at 201000 M⁻¹ s⁻¹.

B7: MOR08473 Fab (Fab, V domains shown)
VH: QVQLVESGGGLVQPGGSLRLSCAASGFTFSSYGMSWVRQAPGKGLEWVSNISNDGHYTYYADSVKGRFTISRDNSKNTLYLQMNSLRAEDTAVYYCARFQASYLDIMDYWGQGTLVTVSS
VL: DIELTQPPSVSVAPGQSITISCSGDNIGSKYVHWYQQKPGQAPVLVIYNDSNRPSGIPERFSGSNSGNTATLTISGTQAEDEADYYCQAWGDNGTRVFGGGTKLTVLG
notes: also called Propeller 3 anti-LRP6 Fab MOR08473
Turning to B7, the values for the EC50 in the assay with human LRP6 [1] and with mouse LRP6 were 740 pM and 460 pM, respectively.

B8: scFv08168-D4 (scFv, not shown: small tags and cut ends)
scFv: QVQLVESGGGLVQPGGSLRLSCAASGFTFSDYVMNWVRQAPGKGLEWVSSISWSGVNTHYADSVKGRFTISRDNSKNTLYLQMNSLRAEDTAVYYCARLGATANNIRYKFMDVWGQGTLVTVSSGGGGSGGGGSGGGGSDIELTQPPSVSVAPGQTARISCSGDSLRNKVYWYQQKPGQAPVLVIYKNNRPSGIPERFSGSNSGNTATLTISGTQAEDEADYYCQSYDGQKSLVFGGGTKLTVL
In the case of B8, the “IC50 by STF assay for Wnt1 inhibition” value in the assay with human LRP6 [3] stood at 5560 pM.

B9: scFv08168-D2 (scFv, not shown: small tags and cut ends)
scFv: B8 scFv with M34F, S49A, S50G
On to B9, for which the “IC50 by STF assay for Wnt1 inhibition” value with human LRP6 [3] was 2590 pM.

B10: MOR06706 Fab (Fab, V domains shown)
VH: QVQLVESGGGLVQPGGSLRLSCAASGFTFSDYAIHWVRQAPGKGLEWVSGISYSGSSTHYADSVKGRFTISRDNSKNTLYLQMNSLRAEDTAVYYCARGSHGNIMAKRYFDFWGQGTLVTVSS
VL: DIELTQPPSVSVAPGQTARISCSGDNIRKKYVYWYQQKPGQAPVLVIYEDSKRPSGIPERFSGSNSGNTATLTISGTQAEDEADYYCSTADSGINNGVFGGGTKLTVL
notes: also called Propeller 1 anti-LRP6 Fab MOR06706
For B10, a half-maximal response with human LRP6 [1] (EC50) required 140 pM. This counts as sub-nanomolar.
